Data from patent US20110052551A1, “CARDIAC MYOCYTE MORPHOGENIC COMPOSITIONS AND METHODS OF USE THEREFOR” (priority 2008, published 2011).
“Also recorded” adds a separate entry of the source.

Legend:
Type in all cases: cell-based, mice
[1] = tested on: unfractionated BMMNCs; experiment: qRT-PCR of pluripotency markers Oct-4 and Nanog in cultured BMMNCs; settings: BMMNCs cultured 21 days, 150 ng/ml; normalized to 18S rRNA
Excerpt: Isolation and culture of unfractionated BM-derived mononuclear cells (BMMNCs). For each experiment, two mice were euthanized by CO2 inhalation followed by cervical dislocation and their femurs and tibias were removed and placed in Dulbecco's Modified Eagle Medium/F12 (DMEM/F12; Invitrogen Corp.). The bones were stripped of soft tissue with fine forceps exposing the long bone shafts. The BM was flushed into and suspended in fresh DMEM/F12 using a 23-gauge needle and 5-ml syringe. The BM was further dispersed by repeated passage through the 23-gauge needle for 10 minutes.
After filtering cells through a 70 μm nylon mesh filter, the MNC fraction (BMMNCs) were separated using FICOLL-PAQUE™ (Sigma Aldrich, St. Louis, Mo., United States of America) density-gradient centrifugation as described in (Zuba-Surma et al., 2006). See also FIG. 9A. The viability of unfractionated BMMNCs was assessed by Trypan blue (Sigma Aldrich) staining. Approximately 15×10^6 unfractionated BMMNCs were obtained from each mouse. Adult unfractionated BMMNCs were seeded (n=5×10^5 cells/well) in 6-well tissue culture plates (lower chamber of a 6-well tissue culture TRANSWELL® system; Corning Inc. Life Sciences, Lowell, Mass., United States of America) on fibronectin (FN)-coated glass coverslips (Fischer Scientific). […]
Assessment of mRNA expression by quantitative real-time RT-PCR (qRT-PCR). […]

[2] = tested on: unfractionated BMMNCs; experiment: Immunocytochemistry for Oct-4-positive BMMNCs; settings: 21 days, 150 ng/ml
Description: Additionally, to assess the influence of Wnt3a on cellular differentiation, unfractionated BMMNCs were cultured separately in the presence of 150 ng/ml of recombinant Wnt3a protein under the same conditions used to culture unfractionated BMMNCs, using pcDNA3/293 cells containing the empty vector as controls (see FIG. 9A).
Immunocytochemistry. Cells were fixed on glass cover-slides with 4% paraformaldehyde for 20 minutes at 4° C. Cells were washed four times and permeabilized with BD PERM/WASH™ (containing saponin; BD Biosciences, San Jose, Calif., United States of America). For immunostaining, separate preparations of BD PERM/WASH™ containing primary monoclonal antibodies against either cardiac troponin T (cTnT; Santa Cruz Biotechnology, Santa Cruz, Calif., United States of America) or cardiac myosin heavy chain (cMyHC; Novus Biologicals, Inc., Littleton, Colo., United States of America) or connexin-43 or Oct-4 were prepared; all primary antibodies, save cMyHC, were purchased from Santa Cruz Biotechnology. Each preparation also contained primary monoclonal antibodies against nestin, glial fibrillary acidic protein (GFAP), CD11B, Gr-1 (myeloid lineage markers), the CD45 epitope, myogenin […]

[3] = tested on: unfractionated BMMNCs; experiment: Immunocytochemistry for pan-hematopoietic marker CD45; settings: after 21 days of culture; percent of total cells
Description: Immunocytochemistry. Cells were fixed on glass cover-slides with 4% paraformaldehyde for 20 minutes at 4° C. Cells were washed four times and permeabilized with BD PERM/WASH™ (containing saponin; BD Biosciences, San Jose, Calif., United States of America). For immunostaining, separate preparations of BD PERM/WASH™ containing primary monoclonal antibodies against either cardiac troponin T (cTnT; Santa Cruz Biotechnology, Santa Cruz, Calif., United States of America) or cardiac myosin heavy chain (cMyHC; Novus Biologicals, Inc., Littleton, Colo., United States of America) or connexin-43 or Oct-4 were prepared; all primary antibodies, save cMyHC, were purchased from Santa Cruz Biotechnology. Each preparation also contained primary monoclonal antibodies against nestin, glial fibrillary acidic protein (GFAP), CD11B, Gr-1 (myeloid lineage markers), the CD45 epitope, myogenin
These preparations were then applied separately (i.e., mixtures either with cTnT or with cMyHC) or, for co-immunostaining experiments, in combinations to cells for 16 hours at 4° C. and 37° C. for the final hour. […]

B1: Wnt3a: recombinant Wnt3a protein, canonical Wnt, used at 150 ng/ml (protein, UniProt P56704 19-352, looked up)
Protein Wnt-3a: SYPIWWSLAVGPQYSSLGSQPILCASIPGLVPKQLRFCRNYVEIMPSVAEGIKIGIQECQHQFRGRRWNCTTVHDSLAIFGPVLDKATRESAFVHAIASAGVAFAVTRSCAEGTAAICGCSSRHQGSPGKGWKWGGCSEDIEFGGMVSREFADARENRPDARSAMNRHNNEAGRQAIASHMHLKCKCHGLSGSCEVKTCWWSQPDFRAIGDFLKDKYDSASEMVVEKHRESRGWVETLRPRYTYFKVPTERDLVYYEASPNFCEPNPETGSFGTRDRTCNVSSHGIDGCDLLCCGRGHNARAERRREKCRCVFHWCCYVSCQECTRVYDVHTCK
increase in Nanog mRNA expression compared with baseline [1]: 158±0.6 fold
increase in Oct-4 mRNA expression compared with baseline [1]: 177±0.4 fold
number of Oct-4-positive BMMNCs compared with untreated control [2]: marked increase; also recorded: a much greater number
cells positive for CD45 [3]: 69.9±2.9%
